Assay results from patent publication US20230190875A1 (ACCELERON PHARMA, published 2023).

T1: activin A (UniProt P08476 311-426)
T1 sequence (looked up): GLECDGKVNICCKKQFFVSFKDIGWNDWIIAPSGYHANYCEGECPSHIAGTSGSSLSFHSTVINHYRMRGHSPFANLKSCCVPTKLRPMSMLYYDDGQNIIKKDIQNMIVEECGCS

T2: BMP6 (UniProt P22004 382-513, limits assumed)
T2 sequence (looked up): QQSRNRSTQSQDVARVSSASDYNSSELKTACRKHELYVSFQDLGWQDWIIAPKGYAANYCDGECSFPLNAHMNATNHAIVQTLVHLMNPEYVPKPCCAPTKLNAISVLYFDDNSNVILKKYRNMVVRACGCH

T3: activin B (UniProt P09529 293-407)
T3 sequence (looked up): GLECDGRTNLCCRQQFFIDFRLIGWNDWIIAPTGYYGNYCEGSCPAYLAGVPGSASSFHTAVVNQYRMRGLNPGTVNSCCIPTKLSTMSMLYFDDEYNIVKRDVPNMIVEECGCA

B1: ActRIIB homodimer Fc fusion (Fc fusion, UniProt Q13705 20-134, looked up)
chain: GRGEAETRECIYYNANWELERTNQSGLERCEGEQDKRLHCYASWRNSSGTIELVKKGCWLDDFNCYDRQECVATEENPQVYFCCCEGNFCNERFTHLPEAGGPEVTYEPPPTAPT
notes: Comparator; also called homodimeric ActRIIB Fc fusion; homomeric ActRIIB-Fc; not shown: linker and Fc domain of the homodimer are not described
B2: GDF3 (ligand, UniProt Q9NR23 251-364, looked up)
chain: AAIPVPKLSCKNLCHRHQLFINFRDLGWHKWIIAPKGFMANYCHGECPFSLTISLNSSNYAFMQALMHAVDPEIPQAVCIPTKLSPISMLYQDNNDNVILRHYEDMVVDECGCG
notes: also called VGR2
B3: GDF11 (ligand, UniProt O95390 299-407, looked up)
chain: NLGLDCDEHSSESRCCRYPLTVDFEAFGWDWIIAPKRYKANYCSGQCEYMFMQKYPHTHLVQQANPRGSAGPCCTPTKMSPINMLYFNDKQQIIYGKIPGMVVDRCGCS
notes: also called BMP11
B4: BMP9 (ligand, UniProt Q9UK05 320-429, looked up)
chain: SAGAGSHCQKTSLRVNFEDIGWDSWIIAPKEYEAYECKGGCFFPLADDVTPTKHAIVQTLVHLKFPTKVGKACCVPTKLSPISVLYKDDMGVPTLKYHYEGMSVAECGCR
notes: also called GDF2
B5: BMP10 (ligand, UniProt O95393 317-424, looked up)
chain: NAKGNYCKRTPLYIDFKEIGWDSWIIAPPGYEAYECRGVCNYPLAEHLTPTKHAIIQALVHLKNSQKASKACCVPTKLEPISILYLDKGVVTYKFKYEGMAVSECGCR

Experiments:
Assay in all cases: SPR (Biacore); Fc fusion captured by anti-Fc antibody, ligand injected
activin A = biological target: T1, activin A
Procedure: (§1) A Biacore™-based binding assay was used to compare ligand binding selectivity of the single-arm ActRIIB heterodimer Fc fusion described above with that of ActRIIB homodimer Fc fusion. Single-arm ActRIIB […] Fc fusion and ActRIIB homodimer Fc fusion were independently captured onto the system using an anti-Fc antibody. Ligands were injected and allowed to flow over the captured receptor protein.

BMP6 = biological target: T2, BMP6
Procedure: as §1

activin B = biological target: T3, activin B
Procedure: as §1

[1] = biological target: B1
Procedure: as §1

[2] = biological target: T4, ActRIIA homodimer Fc fusion (UniProt P27037 21-135)
T4 construct: Comparator; also called homodimeric ActRIIA Fc fusion; not shown: linker and Fc domain of the homodimer are not described
Procedure: A Biacore™-based binding assay was used to compare ligand binding selectivity of the single-arm ActRIIA heterodimer Fc fusions described above with that of an ActRIIA homodimer Fc fusion. The single-arm ActRIIA heterodimer Fc fusions and ActRIIA homodimer Fc fusions were independently captured onto the system using an anti-Fc antibody. Ligands were injected and allowed to flow over the captured receptor protein.

T4 sequence (P27037 21-135): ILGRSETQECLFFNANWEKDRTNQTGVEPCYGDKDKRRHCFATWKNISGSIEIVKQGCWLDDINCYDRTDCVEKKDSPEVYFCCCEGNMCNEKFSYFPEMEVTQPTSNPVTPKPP

Row | Kd [1] | koff [1] | kon [1] | Kd [2] | kon [2] | Binder | other results
1 |  |  |  |  |  | B1 | Kd (activin A): 0.019 nM; koff (activin A): 0.00023 s⁻¹; kon (activin A): 1.2e+07 M⁻¹ s⁻¹; Kd (BMP6): 0.21 nM; koff (BMP6): 0.0068 s⁻¹; kon (BMP6): 3.2e+07 M⁻¹ s⁻¹; Kd (activin B): 0.02 nM; koff (activin B): 0.0001 s⁻¹; kon (activin B): 5.1e+06 M⁻¹ s⁻¹
2 | 1.5 nM | 0.0022 s⁻¹ | 1.4e+06 M⁻¹ s⁻¹ |  |  | B2 | 
3 | 0.002 nM | 0.00011 s⁻¹ | 5e+07 M⁻¹ s⁻¹ | 0.028 nM | 2.6e+07 M⁻¹ s⁻¹ | B3 | koff [2]: 0.00072 s⁻¹
4 | 0.078 nM | 0.0011 s⁻¹ | 1.4e+07 M⁻¹ s⁻¹ |  |  | B4 | 
5 | 0.011 nM | 0.00026 s⁻¹ | 2.3e+07 M⁻¹ s⁻¹ | 0.086 nM | 2.9e+07 M⁻¹ s⁻¹ | B5 | 
